This assay concerns the target Coxsackie B–Adenovirus Receptor (CAR), human, of 293 cells (human (endogenous in 293)) (UniProt P78310). The experiment in a line: ELISA; virus attachment assay: cells on 96-well plates, biotinylated AdV5 (MOI=100 virus particles per cell) for 90 min on ice (4 °C) or at 37 °C, washed, fixed with 3 % paraformaldehyde, streptavidin-HRP; anti-CAR antibodies blocked 95–98 % of the signal (data not shown). Background: In an ELISA, binding on a coated surface is turned into a signal by an enzyme label.
UniProt P78310, sequence (P78310 20-365): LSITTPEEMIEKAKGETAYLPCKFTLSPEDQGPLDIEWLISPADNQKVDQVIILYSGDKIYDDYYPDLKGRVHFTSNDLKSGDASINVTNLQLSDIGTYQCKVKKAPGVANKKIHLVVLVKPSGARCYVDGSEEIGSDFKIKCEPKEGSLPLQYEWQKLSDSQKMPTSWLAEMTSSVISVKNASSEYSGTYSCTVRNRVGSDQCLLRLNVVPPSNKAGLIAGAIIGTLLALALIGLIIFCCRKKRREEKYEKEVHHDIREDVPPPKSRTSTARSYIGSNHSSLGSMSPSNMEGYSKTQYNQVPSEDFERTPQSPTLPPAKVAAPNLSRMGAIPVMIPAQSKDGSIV

Bounds are passed on as bounds.

“biotinylated AdV5-GFP virus particles (complex)” showed a percent of the virus attached to cells of more than 60%.

Source of the values: paper PMC5078831.
